Results as given in the supplement of paper PMC10065799, “High-throughput profiling of sequence recognition by tyrosine kinases and SH2 domains using bacterial peptide display” (eLife, 2023).

The sequences below were run on c-Src (assay: phosphorylation enrichment, bacterial display (enrichment ratio); higher = better substrate or ligand; peptides without Tyr show the background).
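For SH2 binding enrichment of the phosphorylated peptide, bacterial display in this document: peptide library displayed on the E. coli surface as eCPX fusions, selected cells deep-sequenced, score is each peptide's frequency after selection divided by its frequency in the input.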
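For phosphorylation enrichment, bacterial display in this document: 11-residue human phosphosite peptides and single-mutation variants displayed on the E. coli surface, counted by deep sequencing, each peptide's frequency after selection divided by its frequency in the unselected input library; frequency after pTyr selection over input frequency; kinase dosed for 20-30% of maximal phosphorylation in three min.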

| Sequence | phosphorylation enrichment |
| --- | --- |
| NFRTTYVNANE [KCNH2_Y475] | 0.589 |
| LEKISYVYMKR [SSX7_Y48] | 0.547 |
| WGLRSYYETSK [MAGED2_Y448] | 0.298 |
| AAILGYCHGEA [XPC_Y669_R671H] | 0.373 |
| LGSNGYKKLLK [SEPSECS_Y334] | 0.755 |
| DASENYFVMDS [TMEM240_Y77_T80M] | 0.569 |
| GGPAGYLRRAS [PKLR_Y38] | 0.429 |
| LYDPDYMKVIL [CYP4A22_Y104] | 0.988 |
| KYVKMYDNHQL [MYO9A_Y203] | 0.418 |
| CTTIHYNYMYN [TP53_Y234_C238Y] | 0.543 |
| AVISVYDLVAF [PSEN1_Y256_V261F] | 5.87 |
| SERNNYSRVAN [CWC22_Y797] | 0.356 |
| NDKLCYEVSSP [CDH13_Y66_R65C] | 0.596 |
| HNELFYEAAEH [VANGL1_Y345_E347A_YF] | 1.89 |
| LFLALYTGLVR [PIGB_Y402_H407R] | 1.66 |
| LRFEVYGGENE [STOX1_Y610_YF] | 0.5 |
| RTEAQYRFIYM [PTPN11_Y511_Q506R] | 0.754 |
| IHYPPYTDWNQ [ALDH3B2_Y365] | 0.573 |
| EWCSPYGLTPR [GRIN3B_Y601_R598C] | 3.91 |
| FVPAAYVKKLD [SPTAN1_Y1020] | 0.49 |
| DGTIVCTGLET [USH2A_Y4487_Y4487C] | 0.499 |
| WKEIEYEVVPD [CPS1_Y634_R638P] | 0.479 |
| ALSDGYWVVSN [TPP1_Y459] | 0.516 |
| VDDQIYFFRKP [PBRM1_Y1289_E1287Q_YF] | 4.67 |
| PFADPYFDFEI [ZC3H18_Y371_YF] | 4.46 |
| GTQCSYLLSRK [UGT3A1_Y123] | 0.42 |
| REVVNYVQKRN [RMI1_Y450] | 0.582 |
| HFVDEYDLTIE [KRAS_Y32_P34L] | 0.922 |
| IIRFNYLLDVL [FGFR4_Y237_S232I_YF] | 0.525 |

What follows are sequences tested against Grb2 SH2 (UniProt P62993) (assay: SH2 binding enrichment of the phosphorylated peptide, bacterial display (enrichment ratio); higher = better substrate or ligand; peptides without Tyr show the background).

| Sequence | SH2 binding enrichment |
| --- | --- |
| NFRTTYVNANE [KCNH2_Y475] | 15.1 |
| LEKISYVYMKR [SSX7_Y48] | 1.03 |
| AAILGYCHGEA [XPC_Y669_R671H] | 0.855 |
| GGPAGYLRRAS [PKLR_Y38] | 0.666 |
| SERNNYSRVAN [CWC22_Y797] | 0.747 |
| NDKLCYEVSSP [CDH13_Y66_R65C] | 0.569 |
| LFLALYTGLVR [PIGB_Y402_H407R] | 1.53 |
| LRFEVYGGENE [STOX1_Y610_YF] | 0.723 |
| RTEAQYRFIYM [PTPN11_Y511_Q506R] | 0.702 |
| DGTIVCTGLET [USH2A_Y4487_Y4487C] | 0.936 |
| WKEIEYEVVPD [CPS1_Y634_R638P] | 0.837 |
| ALSDGYWVVSN [TPP1_Y459] | 0.823 |
| HFVDEYDLTIE [KRAS_Y32_P34L] | 0.874 |

Results, then the sequence that gave them:

| SH2 binding enrichment | Sequence |
| --- | --- |
| 0.809 | WGLRSYYETSK [MAGED2_Y448] |
| 0.723 | LGSNGYKKLLK [SEPSECS_Y334] |
| 1.01 | DASENYFVMDS [TMEM240_Y77_T80M] |
| 0.693 | LYDPDYMKVIL [CYP4A22_Y104] |
| 0.808 | KYVKMYDNHQL [MYO9A_Y203] |
| 0.843 | CTTIHYNYMYN [TP53_Y234_C238Y] |
| 0.912 | AVISVYDLVAF [PSEN1_Y256_V261F] |
| 0.901 | HNELFYEAAEH [VANGL1_Y345_E347A_YF] |
| 0.883 | IHYPPYTDWNQ [ALDH3B2_Y365] |
| 0.644 | EWCSPYGLTPR [GRIN3B_Y601_R598C] |
| 0.756 | FVPAAYVKKLD [SPTAN1_Y1020] |
| 0.778 | VDDQIYFFRKP [PBRM1_Y1289_E1287Q_YF] |
| 0.857 | PFADPYFDFEI [ZC3H18_Y371_YF] |
| 1.03 | GTQCSYLLSRK [UGT3A1_Y123] |
| 1.1 | REVVNYVQKRN [RMI1_Y450] |
| 2.13 | IIRFNYLLDVL [FGFR4_Y237_S232I_YF] |

What follows are sequences tested against c-Src SH2 in the same assay as above.

| Sequence | SH2 binding enrichment |
| --- | --- |
| NFRTTYVNANE [KCNH2_Y475] | 2.03 |
| LEKISYVYMKR [SSX7_Y48] | 1.02 |
| AAILGYCHGEA [XPC_Y669_R671H] | 0.549 |
| GGPAGYLRRAS [PKLR_Y38] | 0.514 |
| SERNNYSRVAN [CWC22_Y797] | 1.46 |
| NDKLCYEVSSP [CDH13_Y66_R65C] | 0.413 |
| LFLALYTGLVR [PIGB_Y402_H407R] | 1.01 |
| LRFEVYGGENE [STOX1_Y610_YF] | 0.536 |
| RTEAQYRFIYM [PTPN11_Y511_Q506R] | 0.392 |
| DGTIVCTGLET [USH2A_Y4487_Y4487C] | 0.489 |
| WKEIEYEVVPD [CPS1_Y634_R638P] | 0.48 |
| ALSDGYWVVSN [TPP1_Y459] | 9.23 |
| HFVDEYDLTIE [KRAS_Y32_P34L] | 0.633 |

Next, values leading:

| SH2 binding enrichment | Sequence |
| --- | --- |
| 1.03 | WGLRSYYETSK [MAGED2_Y448] |
| 0.396 | LGSNGYKKLLK [SEPSECS_Y334] |
| 0.598 | DASENYFVMDS [TMEM240_Y77_T80M] |
| 0.504 | LYDPDYMKVIL [CYP4A22_Y104] |
| 1.3 | KYVKMYDNHQL [MYO9A_Y203] |
| 1.1 | CTTIHYNYMYN [TP53_Y234_C238Y] |
| 0.796 | AVISVYDLVAF [PSEN1_Y256_V261F] |
| 0.749 | HNELFYEAAEH [VANGL1_Y345_E347A_YF] |
| 1.25 | IHYPPYTDWNQ [ALDH3B2_Y365] |
| 0.535 | EWCSPYGLTPR [GRIN3B_Y601_R598C] |
| 0.384 | FVPAAYVKKLD [SPTAN1_Y1020] |
| 0.42 | VDDQIYFFRKP [PBRM1_Y1289_E1287Q_YF] |
| 0.666 | PFADPYFDFEI [ZC3H18_Y371_YF] |
| 0.704 | GTQCSYLLSRK [UGT3A1_Y123] |
| 0.632 | REVVNYVQKRN [RMI1_Y450] |
| 1.13 | IIRFNYLLDVL [FGFR4_Y237_S232I_YF] |

The sequences below were run against SHP2-C SH2 in the same assay as above.

| Sequence | SH2 binding enrichment |
| --- | --- |
| NFRTTYVNANE [KCNH2_Y475] | 1.48 |
| LEKISYVYMKR [SSX7_Y48] | 3.38 |
| AAILGYCHGEA [XPC_Y669_R671H] | 0.701 |
| GGPAGYLRRAS [PKLR_Y38] | 0.42 |
| SERNNYSRVAN [CWC22_Y797] | 5.32 |
| NDKLCYEVSSP [CDH13_Y66_R65C] | 0.498 |
| LFLALYTGLVR [PIGB_Y402_H407R] | 1.02 |
| LRFEVYGGENE [STOX1_Y610_YF] | 0.842 |
| RTEAQYRFIYM [PTPN11_Y511_Q506R] | 0.642 |
| DGTIVCTGLET [USH2A_Y4487_Y4487C] | 0.632 |
| WKEIEYEVVPD [CPS1_Y634_R638P] | 0.861 |
| ALSDGYWVVSN [TPP1_Y459] | 0.879 |
| HFVDEYDLTIE [KRAS_Y32_P34L] | 0.847 |

Second part, the sequence after the results:

| SH2 binding enrichment | Sequence |
| --- | --- |
| 0.775 | WGLRSYYETSK [MAGED2_Y448] |
| 0.576 | LGSNGYKKLLK [SEPSECS_Y334] |
| 0.767 | DASENYFVMDS [TMEM240_Y77_T80M] |
| 0.73 | LYDPDYMKVIL [CYP4A22_Y104] |
| 0.76 | KYVKMYDNHQL [MYO9A_Y203] |
| 0.887 | CTTIHYNYMYN [TP53_Y234_C238Y] |
| 0.837 | AVISVYDLVAF [PSEN1_Y256_V261F] |
| 0.531 | HNELFYEAAEH [VANGL1_Y345_E347A_YF] |
| 0.71 | IHYPPYTDWNQ [ALDH3B2_Y365] |
| 0.629 | EWCSPYGLTPR [GRIN3B_Y601_R598C] |
| 0.605 | FVPAAYVKKLD [SPTAN1_Y1020] |
| 0.669 | VDDQIYFFRKP [PBRM1_Y1289_E1287Q_YF] |
| 1.03 | PFADPYFDFEI [ZC3H18_Y371_YF] |
| 0.833 | GTQCSYLLSRK [UGT3A1_Y123] |
| 0.787 | REVVNYVQKRN [RMI1_Y450] |
| 2.19 | IIRFNYLLDVL [FGFR4_Y237_S232I_YF] |
